Results reported in paper PMC9482650, “Quantitative fragmentomics allow affinity mapping of interactomes” (Nature Communications, 2022).

Assays:
Experiment in all cases: holdup assay
Set-up in all cases: key: below the threshold = too weak to quantify, mostly under pKd 3.1 to 4
PDZD2_3, O15018 = target: T1, PDZD2_3, O15018
T1 sequence (O15018 581-682, limits assumed, looked up): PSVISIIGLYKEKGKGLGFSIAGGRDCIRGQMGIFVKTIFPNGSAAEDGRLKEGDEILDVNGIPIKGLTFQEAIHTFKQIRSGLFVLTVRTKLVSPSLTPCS

MPP5, Q8N3R9 = target: T2, MPP5, Q8N3R9
T2 sequence (Q8N3R9 251-346, limits assumed, looked up): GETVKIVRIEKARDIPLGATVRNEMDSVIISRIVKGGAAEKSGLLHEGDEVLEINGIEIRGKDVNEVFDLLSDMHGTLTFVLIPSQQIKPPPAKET

PARD3_1, Q8TEW0 = target: PARD3_1, Q8TEW0
Sequence of PARD3_1, Q8TEW0 (Q8TEW0 264-372): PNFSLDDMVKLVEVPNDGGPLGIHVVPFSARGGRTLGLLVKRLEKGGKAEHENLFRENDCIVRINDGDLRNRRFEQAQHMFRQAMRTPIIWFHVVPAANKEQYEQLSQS

SYNPO2L, Q9H987 = target: T3, SYNPO2L, Q9H987
T3 sequence (Q9H987 1-98, limits assumed, looked up): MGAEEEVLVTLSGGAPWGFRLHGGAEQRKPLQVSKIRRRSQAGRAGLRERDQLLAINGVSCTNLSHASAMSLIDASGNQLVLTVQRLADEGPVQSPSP

MAGI2_1, Q86UL8 = target: T4, MAGI2_1, Q86UL8
T4 sequence (Q86UL8 12-111, limits assumed, looked up): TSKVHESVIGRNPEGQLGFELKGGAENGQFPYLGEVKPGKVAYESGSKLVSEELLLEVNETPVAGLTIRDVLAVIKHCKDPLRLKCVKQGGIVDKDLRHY

RIMS2, Q9UQ26 = target: RIMS2, Q9UQ26
Sequence of RIMS2, Q9UQ26 (Q9UQ26 637-758): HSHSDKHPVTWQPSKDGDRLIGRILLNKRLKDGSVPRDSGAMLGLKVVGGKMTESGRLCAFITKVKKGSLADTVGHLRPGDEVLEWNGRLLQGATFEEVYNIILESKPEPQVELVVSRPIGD

NHERF4_3, Q86UT5 = target: NHERF4_3, Q86UT5
Sequence of NHERF4_3, Q86UT5 (Q86UT5 325-412): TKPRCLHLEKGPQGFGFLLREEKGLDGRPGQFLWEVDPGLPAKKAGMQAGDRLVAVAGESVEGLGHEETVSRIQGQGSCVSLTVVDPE

PARD6B, Q9BYG5 = target: T5, PARD6B, Q9BYG5
T5 sequence (Q9BYG5 152-260, limits assumed, looked up): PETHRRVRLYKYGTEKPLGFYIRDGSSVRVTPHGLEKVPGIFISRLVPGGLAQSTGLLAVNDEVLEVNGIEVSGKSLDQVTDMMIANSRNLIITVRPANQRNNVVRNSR

SCRIB_4, Q14160 = target: SCRIB_4, Q14160
Sequence of SCRIB_4, Q14160 (Q14160 1095-1204): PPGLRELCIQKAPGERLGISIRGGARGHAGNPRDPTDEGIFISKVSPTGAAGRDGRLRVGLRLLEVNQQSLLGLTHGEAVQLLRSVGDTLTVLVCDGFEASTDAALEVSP

SHROOM2, Q13796 = target: T6, SHROOM2, Q13796
T6 sequence (Q13796 21-118, limits assumed, looked up): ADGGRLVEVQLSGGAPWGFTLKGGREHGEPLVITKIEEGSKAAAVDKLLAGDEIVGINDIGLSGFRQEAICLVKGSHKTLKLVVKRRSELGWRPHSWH

PTPN4, P29074 = target: T7, PTPN4, P29074
T7 sequence (P29074 512-599, limits assumed, looked up): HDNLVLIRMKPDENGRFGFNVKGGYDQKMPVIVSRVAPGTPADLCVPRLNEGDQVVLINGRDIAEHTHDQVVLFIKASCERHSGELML

NHERF2_1, Q15599 = target: NHERF2_1, Q15599
Sequence of NHERF2_1, Q15599 (Q15599 9-91): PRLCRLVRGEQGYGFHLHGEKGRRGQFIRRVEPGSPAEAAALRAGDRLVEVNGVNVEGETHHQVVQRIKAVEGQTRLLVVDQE

TJP1_1, Q07157 = target: TJP1_1, Q07157
Sequence of TJP1_1, Q07157 (Q07157 18-120): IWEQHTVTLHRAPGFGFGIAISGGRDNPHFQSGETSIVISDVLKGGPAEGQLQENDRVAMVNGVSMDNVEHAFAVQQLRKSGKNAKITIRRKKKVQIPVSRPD

RGS12, O14924 = target: T8, RGS12, O14924
T8 sequence (O14924 17-108, limits assumed, looked up): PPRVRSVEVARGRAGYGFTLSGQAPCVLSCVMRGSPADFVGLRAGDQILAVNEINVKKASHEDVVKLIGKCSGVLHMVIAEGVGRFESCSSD

MAST3, O60307 = target: MAST3, O60307
Sequence of MAST3, O60307 (O60307 945-1048): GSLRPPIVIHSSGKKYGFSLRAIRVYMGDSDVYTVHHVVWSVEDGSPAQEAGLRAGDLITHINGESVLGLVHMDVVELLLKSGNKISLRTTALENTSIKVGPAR

DVL1, O14640 = target: T9, DVL1, O14640
T9 sequence (O14640 246-333, limits assumed, looked up): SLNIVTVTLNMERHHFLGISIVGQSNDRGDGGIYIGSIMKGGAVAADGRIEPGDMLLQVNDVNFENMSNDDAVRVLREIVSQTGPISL

PDZD9, Q8IXQ8 = target: PDZD9, Q8IXQ8
Sequence of PDZD9, Q8IXQ8 (Q8IXQ8 23-120): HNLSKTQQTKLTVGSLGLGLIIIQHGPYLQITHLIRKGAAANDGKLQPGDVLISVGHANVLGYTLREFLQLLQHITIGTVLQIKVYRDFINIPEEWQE

MAGI1_3, Q96QZ7 = target: MAGI1_3, Q96QZ7
Sequence of MAGI1_3, Q96QZ7 (Q96QZ7 638-725): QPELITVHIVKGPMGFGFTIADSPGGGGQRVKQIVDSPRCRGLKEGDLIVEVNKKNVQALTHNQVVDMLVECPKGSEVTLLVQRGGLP

NHERF1_1, O14745 = target: T10, NHERF1_1, O14745
T10 sequence (O14745 9-104, limits assumed, looked up): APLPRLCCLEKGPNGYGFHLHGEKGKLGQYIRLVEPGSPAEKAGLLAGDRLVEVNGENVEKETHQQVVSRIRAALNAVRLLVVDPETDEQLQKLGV

MAGIX, Q9H6Y5 = target: MAGIX, Q9H6Y5
Sequence of MAGIX, Q9H6Y5 (Q9H6Y5 118-211): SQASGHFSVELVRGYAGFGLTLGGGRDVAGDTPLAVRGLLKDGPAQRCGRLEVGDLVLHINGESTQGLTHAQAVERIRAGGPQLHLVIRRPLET

MPDZ_3, O75970 = target: T11, MPDZ_3, O75970
T11 sequence (O75970 372-473, limits assumed, looked up): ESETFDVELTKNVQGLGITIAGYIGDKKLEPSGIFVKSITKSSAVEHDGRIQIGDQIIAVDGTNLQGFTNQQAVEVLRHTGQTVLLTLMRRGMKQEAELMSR

PDZD7_1, Q9H5P4 = target: T12, PDZD7_1, Q9H5P4
T12 sequence (Q9H5P4 81-178, limits assumed, looked up): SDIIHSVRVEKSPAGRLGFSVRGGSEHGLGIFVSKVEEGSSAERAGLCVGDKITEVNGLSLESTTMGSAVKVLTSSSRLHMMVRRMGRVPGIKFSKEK

PTPN13_5, Q12923 = target: T13, PTPN13_5, Q12923
T13 sequence (Q12923 1877-1975, limits assumed, looked up): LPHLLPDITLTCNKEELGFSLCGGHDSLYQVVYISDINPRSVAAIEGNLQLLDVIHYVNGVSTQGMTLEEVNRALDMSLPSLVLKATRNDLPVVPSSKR

APBA3_2, O96018 = target: T14, APBA3_2, O96018
T14 sequence (O96018 480-570, limits assumed, looked up): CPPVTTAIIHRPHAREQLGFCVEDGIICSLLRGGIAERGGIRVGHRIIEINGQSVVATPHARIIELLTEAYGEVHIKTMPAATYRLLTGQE

[1] = modified: phospho on S at position -3 from the C-terminal residue
[2] = modified: acetyl on K at position -1 from the C-terminal residue
[3] = plain residues with an end cap or a label only (N-terminal biotin on a linker: (peg)3)

Q: For RRVRKLPSTTL [RPS6KA1_-3P, Q15418], which pKd (PDZD2_3, O15018; [1]) is on record?
A: below the threshold

Q: And the pKd (MPP5, Q8N3R9; [1])?
A: below the threshold

Q: And the pKd (PARD3_1, Q8TEW0; [1])?
A: below the threshold

Q: And the pKd (SYNPO2L, Q9H987; [1])?
A: below the threshold

Q: What about the pKd (MAGI2_1, Q86UL8; [1]) of the same binder?
A: below the threshold

Q: What about the pKd (RIMS2, Q9UQ26; [1]) of the same binder?
A: below the threshold

Q: What about the pKd (NHERF4_3, Q86UT5; [1]) of the same binder?
A: below the threshold

Q: What about the pKd (PARD6B, Q9BYG5; [1]) of the same binder?
A: below the threshold

Q: What about the pKd (SCRIB_4, Q14160; [1]) of the same binder?
A: below the threshold

Q: And the pKd (SHROOM2, Q13796; [1])?
A: 3.71

Q: And the pKd (PTPN4, P29074; [1])?
A: 3.54

Q: What about the pKd (NHERF2_1, Q15599; [1]) of the same binder?
A: below the threshold

Q: What about the pKd (TJP1_1, Q07157; [1]) of the same binder?
A: below the threshold

Q: And the pKd (RGS12, O14924; [1])?
A: below the threshold

Q: What about the pKd (MAST3, O60307; [1]) of the same binder?
A: below the threshold

Q: And the pKd (DVL1, O14640; [1])?
A: below the threshold

Q: And the pKd (PDZD9, Q8IXQ8; [1])?
A: below the threshold

Q: What about the pKd (MAGI1_3, Q96QZ7; [1]) of the same binder?
A: below the threshold

Q: What about the pKd (NHERF1_1, O14745; [1]) of the same binder?
A: below the threshold

Q: What about the pKd (MAGIX, Q9H6Y5; [1]) of the same binder?
A: below the threshold

Q: What about the pKd (MPDZ_3, O75970; [1]) of the same binder?
A: below the threshold

Q: What about the pKd (PDZD7_1, Q9H5P4; [1]) of the same binder?
A: below the threshold

Q: What about the pKd (PTPN13_5, Q12923; [1]) of the same binder?
A: below the threshold

Q: And the pKd (APBA3_2, O96018; [1])?
A: below the threshold

Q: For DEDQHTQITKV [PTEN_Ac, P60484], which pKd (PDZD2_3, O15018; [2]) is on record?
A: below the threshold

Q: What about the pKd (MPP5, Q8N3R9; [2]) of the same binder?
A: below the threshold

Q: What about the pKd (PARD3_1, Q8TEW0; [2]) of the same binder?
A: below the threshold

Q: What about the pKd (SYNPO2L, Q9H987; [2]) of the same binder?
A: below the threshold

Q: What about the pKd (MAGI2_1, Q86UL8; [2]) of the same binder?
A: below the threshold

Q: What about the pKd (RIMS2, Q9UQ26; [2]) of the same binder?
A: below the threshold

Q: And the pKd (NHERF4_3, Q86UT5; [2])?
A: below the threshold

Q: What about the pKd (PARD6B, Q9BYG5; [2]) of the same binder?
A: below the threshold

Q: And the pKd (SCRIB_4, Q14160; [2])?
A: below the threshold

Q: And the pKd (SHROOM2, Q13796; [2])?
A: below the threshold

Q: What about the pKd (PTPN4, P29074; [2]) of the same binder?
A: below the threshold

Q: What about the pKd (NHERF2_1, Q15599; [2]) of the same binder?
A: below the threshold

Q: What about the pKd (TJP1_1, Q07157; [2]) of the same binder?
A: 3.94

Q: And the pKd (RGS12, O14924; [2])?
A: below the threshold

Q: What about the pKd (MAST3, O60307; [2]) of the same binder?
A: 4.06

Q: What about the pKd (DVL1, O14640; [2]) of the same binder?
A: below the threshold

Q: What about the pKd (PDZD9, Q8IXQ8; [2]) of the same binder?
A: below the threshold

Q: What about the pKd (MAGI1_3, Q96QZ7; [2]) of the same binder?
A: 4.98

Q: What about the pKd (NHERF1_1, O14745; [2]) of the same binder?
A: 4.85

Q: What about the pKd (MAGIX, Q9H6Y5; [2]) of the same binder?
A: below the threshold

Q: And the pKd (MPDZ_3, O75970; [2])?
A: below the threshold

Q: And the pKd (PDZD7_1, Q9H5P4; [2])?
A: below the threshold

Q: And the pKd (PTPN13_5, Q12923; [2])?
A: below the threshold

Q: And the pKd (APBA3_2, O96018; [2])?
A: below the threshold

Q: Which results are given for YDEPTTTTSVPL [SARS-Cov2-3a, P0DTC3]?
A: pKd (PDZD2_3, O15018; [3]): below the threshold; pKd (MPP5, Q8N3R9; [3]): below the threshold; pKd (PARD3_1, Q8TEW0; [3]): 3.98; pKd (SYNPO2L, Q9H987; [3]): below the threshold; pKd (MAGI2_1, Q86UL8; [3]): below the threshold; pKd (RIMS2, Q9UQ26; [3]): below the threshold; pKd (NHERF4_3, Q86UT5; [3]): below the threshold; pKd (PARD6B, Q9BYG5; [3]): below the threshold; pKd (SCRIB_4, Q14160; [3]): below the threshold; pKd (SHROOM2, Q13796; [3]): 3.81; pKd (PTPN4, P29074; [3]): below the threshold; pKd (NHERF2_1, Q15599; [3]): below the threshold; pKd (TJP1_1, Q07157; [3]): below the threshold; pKd (RGS12, O14924; [3]): below the threshold; pKd (MAST3, O60307; [3]): below the threshold; pKd (DVL1, O14640; [3]): below the threshold; pKd (PDZD9, Q8IXQ8; [3]): below the threshold; pKd (MAGI1_3, Q96QZ7; [3]): below the threshold; pKd (NHERF1_1, O14745; [3]): below the threshold; pKd (MAGIX, Q9H6Y5; [3]): below the threshold; pKd (MPDZ_3, O75970; [3]): below the threshold; pKd (PDZD7_1, Q9H5P4; [3]): below the threshold; pKd (PTPN13_5, Q12923; [3]): below the threshold; pKd (APBA3_2, O96018; [3]): below the threshold
